We go through one molecule from paper PMC2807033, “Rep Provides a Second Motor at the Replisome to Promote Duplication of Protein-Bound DNA” (Molecular Cell, 2009).

No end group written: not given here. *: point of attachment. Biotin = O=C1N[C@H]2[C@H](CS[C@H]2CCCCC(=O)*)N1 A value given as a limit tells only on which side of the number the result lay.

In this assay the target is T1, E. coli replicative helicase DnaB, purified (E. coli, UniProt P0ACB0 1-471).
T1 construct: replicative helicase DnaB, E. coli; Construct and purification are in the Supplemental Experimental Procedures; also called E. coli DnaB
Description: not stated; apparent KD (equilibrium dissociation constant), Figure S5; the method is not told in the text shown (SPR is the only quantitative binding method that the paper names). The settings on record: both partners purified.

T1 sequence (P0ACB0 whole entry): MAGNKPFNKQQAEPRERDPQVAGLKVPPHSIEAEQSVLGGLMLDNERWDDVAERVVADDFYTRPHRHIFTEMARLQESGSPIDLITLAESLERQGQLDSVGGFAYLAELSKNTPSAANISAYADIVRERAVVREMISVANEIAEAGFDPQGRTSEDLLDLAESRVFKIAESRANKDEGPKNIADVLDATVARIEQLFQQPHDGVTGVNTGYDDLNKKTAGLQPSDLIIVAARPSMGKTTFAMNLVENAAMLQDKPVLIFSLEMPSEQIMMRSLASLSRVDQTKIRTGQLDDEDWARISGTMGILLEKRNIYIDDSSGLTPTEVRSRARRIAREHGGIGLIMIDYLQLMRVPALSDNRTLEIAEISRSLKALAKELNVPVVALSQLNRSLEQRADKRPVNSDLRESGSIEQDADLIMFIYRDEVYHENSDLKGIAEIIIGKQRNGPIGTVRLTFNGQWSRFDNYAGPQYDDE

B1: C33^Rep peptide (synthetic peptide corresponding to the C-terminal 33 residues of Rep) (peptide, UniProt P09980 641-673, looked up)
peptide: Biotin-EQERKVVSAEERMQKGQSHLANLKAMMAAKRGK
notes: C-terminal 33 residues of Rep helicase, E. coli; also called the Rep C terminus; source: synthetic peptide; not shown: biotin tag, N-terminal, kept
B1: the Kd was under 100 nM.
